The source of these data is paper PMC10688287, “RNA binding protein AUF1/HNRNPD regulates nuclear export, stability and translation of SNCA transcripts” (Open Biology, 2023).

In the experiment the target is T1, CNOT1 (UniProt A5YKK6 1-2376).
T1 construct: CNOT1, scaffold subunit of the CCR4-NOT deadenylase complex; Endogenous human CNOT1 of the SK-N-SH cells is precipitated by the anti-CNOT1 antibody as well; source: SK-N-SH, transfected (CNOT1 plasmid), in lysate
Briefly: co-IP; anti-CNOT1 antibody or control IgG, protein A/G magnetic beads; lysates of SK-N-SH cells 48 h after co-transfection with CNOT1 and either empty or AUF1-expressing plasmid; PLB lysis buffer (10 mM HEPES pH 7.0, 100 mM KCl, 5 mM MgCl2, 0.5% NP-40); washes in NT2 buffer with 250 mM NaCl; Western blot. Conditions: partners not purified.

T1 sequence (A5YKK6 whole entry): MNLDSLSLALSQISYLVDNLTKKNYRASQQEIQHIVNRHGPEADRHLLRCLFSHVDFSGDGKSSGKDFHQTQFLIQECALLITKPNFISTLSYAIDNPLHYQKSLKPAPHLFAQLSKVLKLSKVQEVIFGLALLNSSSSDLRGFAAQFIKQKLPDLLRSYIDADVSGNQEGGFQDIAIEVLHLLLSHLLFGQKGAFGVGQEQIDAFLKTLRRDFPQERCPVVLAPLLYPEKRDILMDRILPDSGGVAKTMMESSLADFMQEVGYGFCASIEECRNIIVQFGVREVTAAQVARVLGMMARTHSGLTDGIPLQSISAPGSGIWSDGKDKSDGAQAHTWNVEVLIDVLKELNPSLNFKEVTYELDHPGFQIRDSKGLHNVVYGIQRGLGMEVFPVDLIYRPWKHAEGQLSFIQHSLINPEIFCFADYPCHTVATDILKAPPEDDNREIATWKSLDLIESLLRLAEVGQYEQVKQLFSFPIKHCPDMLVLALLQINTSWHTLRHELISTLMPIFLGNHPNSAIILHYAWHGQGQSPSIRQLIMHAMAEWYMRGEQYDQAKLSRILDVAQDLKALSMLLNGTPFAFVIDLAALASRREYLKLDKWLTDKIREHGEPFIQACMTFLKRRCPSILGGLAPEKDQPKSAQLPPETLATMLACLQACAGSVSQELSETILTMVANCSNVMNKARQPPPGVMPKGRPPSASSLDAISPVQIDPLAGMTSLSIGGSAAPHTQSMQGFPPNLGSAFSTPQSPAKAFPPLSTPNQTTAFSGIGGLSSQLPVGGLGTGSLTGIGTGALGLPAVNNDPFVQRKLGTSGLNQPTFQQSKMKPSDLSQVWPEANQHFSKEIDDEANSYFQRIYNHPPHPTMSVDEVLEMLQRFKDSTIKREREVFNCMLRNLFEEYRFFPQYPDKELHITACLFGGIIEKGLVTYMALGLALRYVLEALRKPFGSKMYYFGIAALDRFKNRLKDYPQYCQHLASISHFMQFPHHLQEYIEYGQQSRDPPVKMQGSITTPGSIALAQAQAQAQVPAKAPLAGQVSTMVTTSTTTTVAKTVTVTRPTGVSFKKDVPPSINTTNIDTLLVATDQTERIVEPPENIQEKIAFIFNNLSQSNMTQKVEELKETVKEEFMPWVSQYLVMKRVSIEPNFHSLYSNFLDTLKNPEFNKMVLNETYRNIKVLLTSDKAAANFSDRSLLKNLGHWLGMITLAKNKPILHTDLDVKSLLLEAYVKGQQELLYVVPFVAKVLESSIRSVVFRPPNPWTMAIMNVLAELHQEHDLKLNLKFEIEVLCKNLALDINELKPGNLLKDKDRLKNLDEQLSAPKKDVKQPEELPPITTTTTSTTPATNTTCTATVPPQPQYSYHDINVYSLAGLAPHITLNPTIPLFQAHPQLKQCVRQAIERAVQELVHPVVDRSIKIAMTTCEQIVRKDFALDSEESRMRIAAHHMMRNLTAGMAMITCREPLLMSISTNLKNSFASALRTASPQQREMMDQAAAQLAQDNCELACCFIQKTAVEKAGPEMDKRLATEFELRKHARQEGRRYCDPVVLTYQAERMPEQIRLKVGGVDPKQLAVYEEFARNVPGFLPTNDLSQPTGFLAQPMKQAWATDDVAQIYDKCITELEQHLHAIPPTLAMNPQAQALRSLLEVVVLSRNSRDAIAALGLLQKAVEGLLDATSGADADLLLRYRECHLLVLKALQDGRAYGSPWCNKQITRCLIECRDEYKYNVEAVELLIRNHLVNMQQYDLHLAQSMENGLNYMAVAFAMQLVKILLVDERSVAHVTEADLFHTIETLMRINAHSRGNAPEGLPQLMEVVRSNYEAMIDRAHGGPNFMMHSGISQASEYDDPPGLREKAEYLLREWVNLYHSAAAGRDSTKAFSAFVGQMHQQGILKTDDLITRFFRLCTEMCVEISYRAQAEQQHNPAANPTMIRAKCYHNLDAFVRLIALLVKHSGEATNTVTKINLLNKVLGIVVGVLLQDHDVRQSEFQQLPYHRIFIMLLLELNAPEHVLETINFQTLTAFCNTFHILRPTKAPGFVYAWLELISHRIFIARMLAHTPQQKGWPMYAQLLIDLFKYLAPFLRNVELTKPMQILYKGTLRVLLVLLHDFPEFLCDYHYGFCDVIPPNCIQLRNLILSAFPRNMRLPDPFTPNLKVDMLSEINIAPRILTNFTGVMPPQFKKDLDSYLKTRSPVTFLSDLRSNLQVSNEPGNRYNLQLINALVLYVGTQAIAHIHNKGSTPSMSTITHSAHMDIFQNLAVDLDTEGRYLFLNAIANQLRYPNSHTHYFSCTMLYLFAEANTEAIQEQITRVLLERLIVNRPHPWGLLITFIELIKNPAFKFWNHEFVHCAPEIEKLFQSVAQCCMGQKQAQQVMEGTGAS

B1: AUF1 (heterogeneous nuclear ribonucleoprotein D, HNRNPD), 42 kDa protein (natural protein, human, UniProt Q14103-2 1-336, looked up)
chain: MSEEQFGGDGAAAAATAAVGGSAGEQEGAMVAATQGAAAAAGSGAGTGGGTASGGTEGGSAESEGAKIDASKNEEDEGKMFIGGLSWDTTKKDLKDYFSKFGEVVDCTLKLDPITGRSRGFGFVLFKESESVDKVMDQKEHKLNGKVIDPKRAKAMKTKEPVKKIFVGGLSPDTPEEKIREYFGGFGEVESIELPMDNKTNKRRGFCFITFKEEEPVKKIMEKKYHNVGLSKCEIKVAMSKEQYQQQQQWGSRGGFAGRARGRGGGPSQNWNQGYSNYWNQGYGNYGYNSQGYGGYGGYDYTGYNNYYGYGDYSNQQSGYGKVSRRGGHQNSYKPY
notes: human AUF1/HNRNPD CDS encoding the 42 kDa protein (p42 isoform), amplified from SK-N-SH cDNA and cloned between KpnI and NotI of pENTR-GD; The co-IP was done in cells transfected with empty or AUF1-expressing plasmid; the anti-AUF1 blot also detects the endogenous AUF1 isoforms (p37, p40, p42, p45) of SK-N-SH cells; also called p42; source: SK-N-SH, transfected (AUF1-expressing plasmid), in lysate
Turning to B1, the “fold enrichment in the CNOT1 immunoprecipitate” value worked out at 1.6 fold.
